From patent US20240116985A1, “STAPLED PEPTIDES AND METHODS THEREOF” (priority 2020, published 2024)
Starred links: 1 amine or outer side, 2 acyl side, 3 side chain; linkers in the order of their positions; H or OH if unused. Positions of bridges follow the written chain, without caps; N, C: chain ends. Non-standard residues stand in square brackets, D forms with d. Primed or numbered codes have the meaning given here. PyrS2″ = (S)-3-amino-1-((pent-4-en-1-yloxy)carbonyl)pyrrolidine-3-carboxylic acid (stapling residue), C=CCCCOC(=O)N1CC[C@@](N[*:1])(C(=O)[*:2])C1; B5(4) = 2,2-bis(4-pentenyl)glycine = 2-amino-2-(pent-4-en-1-yl)hept-6-enoic acid (stitching residue), C=CCCCC(CCCC=C)(N[*:1])C(=O)[*:2]; B5(5) = 2,2-bis(4-pentenyl)glycine, 2-amino-2-(pent-4-en-1-yl)hept-6-enoic acid (stitching residue), C=CCCCC(CCCC=C)(N[*:1])C(=O)[*:2]; PyrS2 = (S)-3-amino-1-((pent-4-en-1-yloxy)carbonyl)pyrrolidine-3-carboxylic acid, C=CCCCOC(=O)N1CC[C@@](N[*:1])(C(=O)[*:2])C1; B5(12) = 2-amino-2-(pent-4-en-1-yl)hept-6-enoic acid (two olefin side chains), C=CCCCC(CCCC=C)(N[*:1])C(=O)[*:2]; B5(3) = 2,2-bis(4-pentenyl)glycine (stitching residue), C=CCCCC(CCCC=C)(N[*:1])C(=O)[*:2]; Phe(3-COOH) = N[C@@H](Cc1cccc(C(=O)O)c1)C(=O)O; 2F3MeF = Cc1cccc(C[C@H](N[*:1])C(=O)[*:2])c1F; Phe(2-CF3) = N[C@@H](Cc1ccccc1C(F)(F)F)C(=O)O; Ala(4-thiazolyl) = N[C@@H](Cc1cscn1)C(=O)O; Phe(4-Cl) = N[C@@H](Cc1ccc(Cl)cc1)C(=O)O; Phe(2-Cl) = N[C@@H](Cc1ccccc1Cl)C(=O)O; Bta = N[C@@H](Cc1csc2ccccc12)C(=O)O; Lys(iPr) = CC(C)NCCCC[C@H](N)C(=O)O; αAllylPro = C=CC[C@@]1(C(=O)O)CCCN1; tBuAla = CC(C)(C)C[C@H](N)C(=O)O; 2Thi = N[C@@H](Cc1cccs1)C(=O)O; 3Thi = N[C@@H](Cc1ccsc1)C(=O)O; Cha = N[C@@H](CC1CCCCC1)C(=O)O; Cit = NC(=O)NCCC[C@H](N)C(=O)O; hSer = N[C@@H](CCO)C(=O)O

B1: I-2220 (peptide)
peptide: Ac-[αAllylPro]D[tBuAla][B5(3)]D[Phe(3-COOH)]AAFL[PyrS2″][3Thi][Phe(4-Cl)]Q-NH2
modifications: staple 1-4, 4-11
B2: I-1152 (peptide)
peptide: Ac-[αAllylPro]D[Cha][B5(4)]DDLLFT[PyrS2″][Phe(2-Cl)][Bta]S-NH2
modifications: staple 1-4, 4-11
B3: I-2015 (peptide)
peptide: Ac-[αAllylPro]D[tBuAla][B5(4)]NTAAYN[PyrS2″][3Thi][Bta]Q-NH2
modifications: staple 1-4, 4-11; not fully specified; printed as Ac-PL3-Asp-Npg-B5-Asn-Thr-Ala-Ala-Tyr-Asn-PyrS2-3Thi-BztA-Gln-NH2
B4: I-2016 (peptide)
peptide: Ac-[αAllylPro]D[tBuAla][B5(4)]NTAAYN[PyrS2″][3Thi][Bta]Q-NH2
modifications: staple 1-4, 4-11; not fully specified; printed as Ac-PL3-Asp-Npg-B5-Asn-Thr-Ala-Ala-Tyr-Asn-PyrS2-3Thi-BztA-Gln-NH2
B5: I-2025 (peptide)
peptide: Ac-[αAllylPro]D[tBuAla][B5(5)]D[Phe(3-COOH)]AAFA[PyrS2″][Phe(2-Cl)][Bta]F-NH2
modifications: staple 1-4, 4-11
B6: I-2071 (peptide)
peptide: Ac-[αAllylPro]N[Cha][B5(5)]DQ[Lys(iPr)]AFN[PyrS2″][Ala(4-thiazolyl)][Bta][hSer]-NH2
modifications: staple 1-4, 4-11
B7: I-2072 (peptide)
peptide: Ac-[αAllylPro]N[Cha][B5(5)]DQ[Lys(iPr)]A[Ala(4-thiazolyl)]N[PyrS2″]F[Bta][hSer]-NH2
modifications: staple 1-4, 4-11
B8: I-2073 (peptide)
peptide: Ac-[αAllylPro]N[Cha][B5(5)]DQ[Lys(iPr)]AFN[PyrS2″]F[Bta]-NH2
modifications: staple 1-4, 4-11
B9: I-2074 (peptide)
peptide: Ac-[αAllylPro]N[Cha][B5(5)]DQ[Lys(iPr)]AFN[PyrS2″][3Thi][Bta][hSer]-NH2
modifications: staple 1-4, 4-11
B10: I-2075 (peptide)
peptide: Ac-[αAllylPro]N[Cha][B5(5)]DQ[Lys(iPr)]AFN[PyrS2″][2Thi][Bta][hSer]-NH2
modifications: staple 1-4, 4-11
B11: I-2091 (peptide)
peptide: Ac-[αAllylPro]D[tBuAla][B5(4)]D[Phe(3-COOH)]AAFL[PyrS2″][Phe(2-CF3)][Bta][dA]-NH2
modifications: staple 1-4, 4-11
B12: I-2093 (peptide)
peptide: Ac-[αAllylPro]D[tBuAla][B5(4)]D[Phe(3-COOH)]AAFF[PyrS2″][Phe(2-CF3)][Bta][dQ]-NH2
modifications: staple 1-4, 4-11
B13: I-2095 (peptide)
peptide: Ac-[αAllylPro]D[tBuAla][B5(4)]D[Phe(3-COOH)]AAFF[PyrS2″][2F3MeF][Bta][dA]-NH2
modifications: staple 1-4, 4-11
B14: I-860 (peptide)
peptide: Ac-[αAllylPro]D[tBuAla][B5(12)]DTAAFN[PyrS2][3Thi][Bta]-NH2
modifications: staple 1-4, 4-11; also: later eluting staple isomer
B15: I-861 (peptide)
peptide: Ac-[αAllylPro]D[tBuAla][B5(12)]D[Cit]AAFN[PyrS2][3Thi][Bta]-NH2
modifications: staple 1-4, 4-11
B16: I-862 (peptide)
peptide: Ac-[αAllylPro]D[tBuAla][B5(12)]DLAAFN[PyrS2][3Thi][Bta]-NH2
modifications: staple 1-4, 4-11

Biological target: full-length beta-Catenin (Uniprot ID P35222) (Homo sapiens (Human)) (UniProt P35222)
Assay: fluorescence polarization competition against 5FAM-TCF4 10-53
Target sequence in this assay (P35222 whole entry, the tested form may be a part): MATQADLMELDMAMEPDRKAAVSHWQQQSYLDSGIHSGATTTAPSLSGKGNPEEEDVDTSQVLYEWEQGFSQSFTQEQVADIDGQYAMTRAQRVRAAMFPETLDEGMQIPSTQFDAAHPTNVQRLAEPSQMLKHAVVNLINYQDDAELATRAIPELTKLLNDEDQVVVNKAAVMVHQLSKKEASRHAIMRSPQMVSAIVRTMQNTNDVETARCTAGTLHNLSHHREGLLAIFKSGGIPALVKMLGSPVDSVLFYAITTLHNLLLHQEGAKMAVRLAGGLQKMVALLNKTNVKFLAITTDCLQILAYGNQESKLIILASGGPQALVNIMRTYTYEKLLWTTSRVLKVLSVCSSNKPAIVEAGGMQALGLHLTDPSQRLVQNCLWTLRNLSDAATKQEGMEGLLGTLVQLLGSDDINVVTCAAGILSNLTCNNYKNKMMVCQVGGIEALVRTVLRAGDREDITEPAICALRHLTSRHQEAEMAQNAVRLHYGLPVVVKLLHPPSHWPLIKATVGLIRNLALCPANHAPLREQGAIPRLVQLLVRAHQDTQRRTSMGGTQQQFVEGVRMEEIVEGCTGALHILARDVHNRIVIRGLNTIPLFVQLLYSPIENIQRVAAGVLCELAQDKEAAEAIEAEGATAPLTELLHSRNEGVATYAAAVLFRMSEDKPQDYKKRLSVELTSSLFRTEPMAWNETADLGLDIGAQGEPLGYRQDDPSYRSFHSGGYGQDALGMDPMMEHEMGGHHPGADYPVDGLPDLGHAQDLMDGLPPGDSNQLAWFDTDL

Binder B1 has an IC50 of 12 nM.

Biological target: Bcat-Halo (UniProt P35222)
Sequence (P35222 whole entry): as the sequence (P35222 whole entry, the tested form may be a part) above
Assay: NanoBRET Abs IC50 in HEK293 cells; competitor TCF4-Luc on Bcat-Halo

B2 showed an IC50 of 14200 nM.

Biological target: full-length beta-Catenin (Uniprot ID P35222) (Homo sapiens (Human)) (UniProt P35222)
Assay: FP competition; full-length beta-catenin + 5FAM-TCF4(10-53) probe
Target sequence in this assay (P35222 whole entry, the tested form may be a part): as above

B3 and B4 are within 1.5-fold of each other in IC50: 522 nM for the first, 703 nM for the second.

B5 showed an IC50 of 109 nM.

Biological target: Bcat-Halo (UniProt P35222)
Assay: NanoBRET Abs IC50, Bcat-Halo/TCF4-Luc in HEK293 cells

Binder B1 has an IC50 of 16300 nM.

Biological target: full-length beta-Catenin (Uniprot ID P35222) (Homo sapiens (Human)) (UniProt P35222)
Assay: fluorescence polarization competition vs 5FAM-TCF4(10-53) on full-length beta-catenin
Target sequence in this assay (P35222 2-781 limits assumed): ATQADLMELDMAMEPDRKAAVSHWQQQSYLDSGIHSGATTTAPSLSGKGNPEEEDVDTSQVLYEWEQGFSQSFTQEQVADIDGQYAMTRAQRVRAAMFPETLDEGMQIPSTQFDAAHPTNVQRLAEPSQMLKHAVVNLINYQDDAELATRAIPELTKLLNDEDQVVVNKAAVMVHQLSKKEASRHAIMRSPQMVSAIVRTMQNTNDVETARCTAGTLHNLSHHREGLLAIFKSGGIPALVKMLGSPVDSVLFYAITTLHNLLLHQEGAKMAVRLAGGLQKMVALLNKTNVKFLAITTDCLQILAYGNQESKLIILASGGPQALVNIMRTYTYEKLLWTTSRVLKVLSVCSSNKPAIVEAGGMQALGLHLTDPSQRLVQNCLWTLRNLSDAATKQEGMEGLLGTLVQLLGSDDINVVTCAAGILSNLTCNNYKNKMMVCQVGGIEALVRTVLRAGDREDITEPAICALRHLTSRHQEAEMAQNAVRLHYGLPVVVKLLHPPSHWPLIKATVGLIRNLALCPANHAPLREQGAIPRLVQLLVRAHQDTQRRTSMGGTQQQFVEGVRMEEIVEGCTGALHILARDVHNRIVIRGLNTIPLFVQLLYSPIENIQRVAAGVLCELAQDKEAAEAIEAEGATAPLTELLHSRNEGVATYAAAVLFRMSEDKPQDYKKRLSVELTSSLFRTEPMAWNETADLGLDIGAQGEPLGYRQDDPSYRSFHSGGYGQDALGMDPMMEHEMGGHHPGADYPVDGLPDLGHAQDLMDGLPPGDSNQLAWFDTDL

In the case of B2, the IC50 is reported as 65 nM.

Biological target: full-length beta-Catenin (Uniprot ID P35222) (Homo sapiens (Human)) (UniProt P35222)
Assay: fluorescence polarization competition; 10 nM full-length beta-catenin + 10 nM 5FAM-TCF4(10-53), peptide titrated
Target sequence in this assay (P35222 whole entry, the tested form may be a part): as the sequence (P35222 whole entry, the tested form may be a part) above

Going from B6 to B7, the IC50 rises from 592 nM to 8260 nM (14-fold).

Compared with B8, B9 is 2-fold higher in IC50: 398 nM for the first, 789 nM for the second.

Compared with B10, B11 is 48-fold lower in IC50: 2330 nM for the first, 49 nM for the second. The second is the more potent here.

First: B12
Second: B13
The IC50 of the first is 1.8-fold lower: 43 nM for the first, 78 nM for the second.

Biological target: full-length beta-Catenin (Uniprot ID P35222) (Homo sapiens (Human)) (UniProt P35222)
Assay: fluorescence polarization competition; 10 nM full-length beta-catenin with 10 nM 5FAM-TCF4 (residues 10-53) probe as competitor
Target sequence in this assay (P35222 2-781 limits assumed): as the sequence (P35222 2-781 limits assumed) above

Going from B14 to B15, the EC50 falls from 61 nM to 40 nM (1.5-fold). The second is the more potent here.

B16 gave an EC50 of 123 nM.

Biological target: full-length beta-Catenin (Uniprot ID P35222) (Homo sapiens (Human)) (UniProt P35222)
Assay: FP competition vs 5FAM-TCF4(10-53), full-length beta-catenin
Target sequence in this assay (P35222 2-781 limits assumed): as above

Going from B14 to B15, the IC50 falls from 61 nM to 40 nM (1.5-fold). The second is the more potent here.

B16 showed an IC50 of 123 nM.

Biological target: full-length beta-Catenin (Uniprot ID P35222) (Homo sapiens (Human)) (UniProt P35222)
Assay: fluorescence polarization competition, 5FAM-TCF4 10-53 probe on full-length beta-catenin
Target sequence in this assay (P35222 2-781 limits assumed): as above

B2 gave an EC50 of 65 nM.
